The values that follow come from the supplement of paper PMC10567573.

The labels stand for the following.
B1: TMEM106C (parent)
chain: YVTTNVSLIPPRSEQLVNFTGKAE
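Also: lentivirally expressed fusions sorted by FACS into six bins by GFP to DsRed ratio, PSI derived from sequencing read proportions per bin multiplied by bin number.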

In the data set the parent is B1. In words: protein stability index of a GFP-peptide fusion (GPS, HEK-293T) (PSI 1-6); higher = more stable. The note with it: c terminus: a fixed tail appended.
On to YVTTNVSLIPPRSEQEVNFTGKAE [L16E], for which the protein stability index is 2.1.
Turning to YVTTNVSLIPPRSEQMVNFTGKAE [L16M], the protein stability index turned out to be 2.02.
With YVTTNVSLIPPRSEQFVNFTGKAE [L16F], the protein stability index amounted to 1.88.
For YVTTNVSLIPPRSEQQVNFTGKAE [L16Q], the protein stability index is 1.92.
To YVTTNVSLIPPRSEQHVNFTGKAE [L16H] belongs 1.49; to YVTTNVSLIPPRSEQKVNFTGKAE [L16K], 1.9; to YVTTNVSLIPPRSEQRVNFTGKAE [L16R], 1.95.
YVTTNVSLIPPRSEQCVNFTGKAE [L16C]: the protein stability index stood at 2.16.
For the variant YVTTNVSLIPPRSEQSVNFTGKAE [L16S], the protein stability index worked out at 1.91.
For YVTTNVSLIPPRSEQGVNFTGKAE [L16G], the protein stability index turned out to be 1.81.
Under YVTTNVSLIPPRSEQAVNFTGKAE [L16A] stands 2.14; under YVTTNVSLIPPRSEQNVNFTGKAE [L16N], 1.66; under YVTTNVSLIPPRSEQIVNFTGKAE [L16I], 2.23.
With YVTTNVSLIPPRSEQDVNFTGKAE [L16D], the protein stability index was found to be 2.05.
To YVTTNVSLIPPRSEQPVNFTGKAE [L16P] belongs 2.55; to YVTTNVSLIPDRSEQLVNFTGKAE [P11D], 2.11.
For YVTTNVSLIPYRSEQLVNFTGKAE [P11Y], the protein stability index was 2.75.
Turning to YVTTNVSLIPSRSEQLVNFTGKAE [P11S], the protein stability index worked out at 2.65.
For the variant YVTTNVSLIPTRSEQLVNFTGKAE [P11T], the protein stability index came out at 1.74.
For YVTTNVSLIPWRSEQLVNFTGKAE [P11W], the protein stability index was determined as 3.67.
For YVTTNVSLIPGRSEQLVNFTGKAE [P11G], the protein stability index was 2.51.
Consider YVTTNVSLIPMRSEQLVNFTGKAE [P11M], for which the protein stability index came to 1.45.
For the variant YVTTNVSLIPVRSEQLVNFTGKAE [P11V], the protein stability index amounted to 1.41.
Regarding YVTTNVSLIPERSEQLVNFTGKAE [P11E], the protein stability index was 1.72.
YVTTNVSLIPFRSEQLVNFTGKAE [P11F]: the protein stability index stood at 3.09.
Take YVTTNVSLIPIRSEQLVNFTGKAE [P11I]: the protein stability index was 2.3.
Consider YVTTNVSLIPNRSEQLVNFTGKAE [P11N], for which the protein stability index was determined as 2.37.
Turning to YVTTNVSLIPKRSEQLVNFTGKAE [P11K], the protein stability index was determined as 2.01.
Under YVTTNVSLIPQRSEQLVNFTGKAE [P11Q] stands 2.12; under YVTTNVSLIPLRSEQLVNFTGKAE [P11L], 1.51.
As for YVTTNVSLIPRRSEQLVNFTGKAE [P11R], the protein stability index was 1.41.
Under YVTTNVSLIPHRSEQLVNFTGKAE [P11H] stands 1.97.
With YVTTNVSLIPARSEQLVNFTGKAE [P11A], the protein stability index was 1.6.
With YVTTNVSLIPPRSYQLVNFTGKAE [E14Y], the protein stability index turned out to be 2.19.
To YVTTNVSLIPPRSMQLVNFTGKAE [E14M] belongs 2.26; to YVTTNVSLIPPRSRQLVNFTGKAE [E14R], 1.87; to YVTTNVSLIPPRSKQLVNFTGKAE [E14K], 2.16.
Take YVTTNVSLIPPRSSQLVNFTGKAE [E14S]: the protein stability index was 1.79.
As for YVTTNVSLIPPRSHQLVNFTGKAE [E14H], the protein stability index came out at 1.92.
Regarding YVTTNVSLIPPRSTQLVNFTGKAE [E14T], the protein stability index amounted to 2.79.
Regarding YVTTNVSLIPPRSNQLVNFTGKAE [E14N], the protein stability index came to 1.8.
Turning to YVTTNVSLIPPRSWQLVNFTGKAE [E14W], the protein stability index came to 2.
In the case of YVTTNVSLIPPRSIQLVNFTGKAE [E14I], the protein stability index amounted to 2.17.
In the case of YVTTNVSLIPPRSVQLVNFTGKAE [E14V], the protein stability index stood at 2.
Regarding YVTTNVSLIPPRSDQLVNFTGKAE [E14D], the protein stability index was determined as 1.46.
On to YVTTNVSLIPPRSFQLVNFTGKAE [E14F], for which the protein stability index came out at 1.99.
Regarding YVTTNVSLIPPRSGQLVNFTGKAE [E14G], the protein stability index stood at 1.59.
Consider YVTTNVSLIPPRSQQLVNFTGKAE [E14Q], for which the protein stability index stood at 1.5.
YVTTNVSLIPPRSPQLVNFTGKAE [E14P]: the protein stability index was 2.18.
Under YVTTNVSLIPPRSLQLVNFTGKAE [E14L] stands 2.27; under YVTTNVSLIPPRSAQLVNFTGKAE [E14A], 2.11.
To YVTTNVSLIPPRSEFLVNFTGKAE [Q15F] belongs 1.5; to YVTTNVSLIPPRSEALVNFTGKAE [Q15A], 1.5; to YVTTNVSLIPPRSEELVNFTGKAE [Q15E], 2.07.
On to YVTTNVSLIPPRSEILVNFTGKAE [Q15I], for which the protein stability index was 2.37.
Regarding YVTTNVSLIPPRSEKLVNFTGKAE [Q15K], the protein stability index turned out to be 1.43.
Consider YVTTNVSLIPPRSEYLVNFTGKAE [Q15Y], for which the protein stability index stood at 2.69.
As to YVTTNVSLIPPRSEGLVNFTGKAE [Q15G], the protein stability index is 2.37.
Take YVTTNVSLIPPRSEWLVNFTGKAE [Q15W]: the protein stability index was 1.86.
Turning to YVTTNVSLIPPRSERLVNFTGKAE [Q15R], the protein stability index was 1.74.
With YVTTNVSLIPPRSETLVNFTGKAE [Q15T], the protein stability index came to 2.23.
Under YVTTNVSLIPPRSEDLVNFTGKAE [Q15D] stands 2.08; under YVTTNVSLIPPRSENLVNFTGKAE [Q15N], 1.55; under YVTTNVSLIPPRSEMLVNFTGKAE [Q15M], 1.7.
As for YVTTNVSLIPPRSEHLVNFTGKAE [Q15H], the protein stability index turned out to be 2.33.
With YVTTNVSLIPPRSEVLVNFTGKAE [Q15V], the protein stability index amounted to 2.17.
YVTTNVSLIPPRSEPLVNFTGKAE [Q15P]: the protein stability index stood at 2.28.
Under YVTTNVSLIPPRSELLVNFTGKAE [Q15L] stands 2.69.
Take YVTTNVSLIPPRSESLVNFTGKAE [Q15S]: the protein stability index was determined as 1.96.
As to YVTTNVSLIPPRSECLVNFTGKAE [Q15C], the protein stability index was 2.24.
Consider YVTTNVSLIPPRWEQLVNFTGKAE [S13W], for which the protein stability index came out at 1.18.
Take YVTTNVSLIPPRYEQLVNFTGKAE [S13Y]: the protein stability index worked out at 2.2.
As for YVTTNVSLIPPRREQLVNFTGKAE [S13R], the protein stability index came out at 1.86.
With YVTTNVSLIPPRHEQLVNFTGKAE [S13H], the protein stability index was 2.34.
On to YVTTNVSLIPPRGEQLVNFTGKAE [S13G], for which the protein stability index amounted to 1.86.
On to YVTTNVSLIPPRNEQLVNFTGKAE [S13N], for which the protein stability index is 2.32.
In the case of YVTTNVSLIPPRLEQLVNFTGKAE [S13L], the protein stability index stood at 2.32.
Regarding YVTTNVSLIPPREEQLVNFTGKAE [S13E], the protein stability index is 1.88.
As for YVTTNVSLIPPRIEQLVNFTGKAE [S13I], the protein stability index turned out to be 1.62.
For the variant YVTTNVSLIPPRTEQLVNFTGKAE [S13T], the protein stability index turned out to be 1.74.
For the variant YVTTNVSLIPPRCEQLVNFTGKAE [S13C], the protein stability index was found to be 2.24.
To YVTTNVSLIPPRPEQLVNFTGKAE [S13P] belongs 1.64; to YVTTNVSLIPPRQEQLVNFTGKAE [S13Q], 1.72.
As for YVTTNVSLIPPRKEQLVNFTGKAE [S13K], the protein stability index was found to be 1.55.
Regarding YVTTNVSLIPPRFEQLVNFTGKAE [S13F], the protein stability index was determined as 2.56.
For the variant YVTTNVSLIPPRDEQLVNFTGKAE [S13D], the protein stability index came to 1.57.
Under YVTTNVSLIPPRAEQLVNFTGKAE [S13A] stands 2.22.
On to YVTTNVSLIPPRMEQLVNFTGKAE [S13M], for which the protein stability index came out at 2.
For YVTTNVSLIPPRVEQLVNFTGKAE [S13V], the protein stability index was 2.07.
As for YVTTNYSLIPPRSEQLVNFTGKAE [V6Y], the protein stability index stood at 2.76.
On to YVTTNSSLIPPRSEQLVNFTGKAE [V6S], for which the protein stability index came out at 1.91.
YVTTNTSLIPPRSEQLVNFTGKAE [V6T]: the protein stability index was determined as 2.02.
As for YVTTNWSLIPPRSEQLVNFTGKAE [V6W], the protein stability index is 2.57.
As for YVTTNVSGIPPRSEQLVNFTGKAE [L8G], the protein stability index came to 2.39.
